# Where a chain is given by its changes, count along the chain named. Read-outs that look alike come from different tables or passages of the source.
# T1: human FcγRIIa H allotype extracellular domain with C-terminal His-tag (human, UniProt P12318 34-217)
# T1 construct: extracellular domain; also called hFcγR IIa H
# T1 sequence (looked up): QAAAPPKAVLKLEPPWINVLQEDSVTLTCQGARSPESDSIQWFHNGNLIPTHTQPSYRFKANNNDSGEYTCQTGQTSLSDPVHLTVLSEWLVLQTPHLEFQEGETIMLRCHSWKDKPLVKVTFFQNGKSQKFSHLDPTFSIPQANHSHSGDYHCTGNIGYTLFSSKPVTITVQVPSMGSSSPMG
# T2: human FcγRIIa R allotype extracellular domain with C-terminal His-tag (human, UniProt P12318 34-217)
# T2 construct: extracellular domain; also called hFcγR IIa R
# T2 sequence (looked up): T1 sequence (looked up) with H134R
# T3: human FcγRIIb extracellular domain with C-terminal His-tag (human, UniProt P31994 43-217)
# T3 construct: extracellular domain; also called hFcγR IIb
# T3 sequence (looked up): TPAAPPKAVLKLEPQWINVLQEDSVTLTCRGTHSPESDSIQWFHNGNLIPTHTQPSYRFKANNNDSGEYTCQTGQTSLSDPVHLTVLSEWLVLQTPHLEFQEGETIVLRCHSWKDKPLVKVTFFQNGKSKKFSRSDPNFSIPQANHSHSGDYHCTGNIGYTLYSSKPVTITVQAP
# B1: 04H1389-G1m/04L1615-k0MT (antibody, human IgG1, kappa)
# heavy: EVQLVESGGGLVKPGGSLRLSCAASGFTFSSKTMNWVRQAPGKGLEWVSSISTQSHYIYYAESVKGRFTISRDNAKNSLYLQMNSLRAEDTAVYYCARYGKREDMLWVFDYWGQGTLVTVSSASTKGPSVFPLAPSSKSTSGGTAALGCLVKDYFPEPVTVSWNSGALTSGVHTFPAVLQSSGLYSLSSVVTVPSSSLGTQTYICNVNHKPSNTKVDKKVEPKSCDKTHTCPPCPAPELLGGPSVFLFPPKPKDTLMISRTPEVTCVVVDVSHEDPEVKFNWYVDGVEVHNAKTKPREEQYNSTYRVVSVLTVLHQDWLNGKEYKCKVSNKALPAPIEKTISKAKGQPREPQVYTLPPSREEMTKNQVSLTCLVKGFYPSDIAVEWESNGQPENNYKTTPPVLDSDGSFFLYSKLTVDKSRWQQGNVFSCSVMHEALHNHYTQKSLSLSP
# light: DIVMTQSPLSLPVTPGEPASISCQGPSTGVGDYNYVHWYQQKPGQAPRLLIYFTSKKPSGVPDRFSGSGSGTDFTLKISRVEAEDVGVYYCQTYAAPLGPMFGQGTKLEIKRTVAAPSVFIFPPSDEQLKSGTASVVCLLNNFYPREAKVQWKVDNALQSGNSQESVTEQDSKDSTYSLSSTLTLSKADYEKHKVYACEVTHQGLSSPVTKSFNRGEC
# notes: Homodimer used for comparison; also called 04H1389-G1m/04L16150k0MT
# B2: 04H1654-G1m/04L1610-lam1 (antibody, human IgG1, lambda)
# heavy: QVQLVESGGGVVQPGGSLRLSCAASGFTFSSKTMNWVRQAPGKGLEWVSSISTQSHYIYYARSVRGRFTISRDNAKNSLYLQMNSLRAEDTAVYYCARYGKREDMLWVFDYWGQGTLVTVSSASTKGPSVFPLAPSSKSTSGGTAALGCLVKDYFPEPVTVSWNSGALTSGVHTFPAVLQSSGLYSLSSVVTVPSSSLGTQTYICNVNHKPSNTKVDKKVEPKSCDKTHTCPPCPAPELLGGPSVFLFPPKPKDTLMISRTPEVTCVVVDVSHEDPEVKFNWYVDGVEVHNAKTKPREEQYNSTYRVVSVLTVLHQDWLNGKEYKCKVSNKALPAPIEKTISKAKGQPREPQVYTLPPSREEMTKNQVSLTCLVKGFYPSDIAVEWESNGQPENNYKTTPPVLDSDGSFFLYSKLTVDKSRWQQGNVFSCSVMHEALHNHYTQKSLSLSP
# light: QSALTQPPSASGSPGQSVTISCEGPSTGVGDYNWVHWYQQHPGKAPKLMIYFTSKKPSGVPDRFSGSKSGNTASLTVSGLQAEDEADYYCQTYAAPLGPMFGGGTKLTVLGQPKAAPSVTLFPPSSEELQANKATLVCLISDFYPGAVTVAWKADSSPVKAGVETTTPSKQSNNKYAASSYLSLTPEQWKSHRSYSCQVTHEGSTVEKTVAPTECS
# B3: 04H1656-G1m/04L1610-lam1 (antibody, human IgG1, lambda)
# heavy: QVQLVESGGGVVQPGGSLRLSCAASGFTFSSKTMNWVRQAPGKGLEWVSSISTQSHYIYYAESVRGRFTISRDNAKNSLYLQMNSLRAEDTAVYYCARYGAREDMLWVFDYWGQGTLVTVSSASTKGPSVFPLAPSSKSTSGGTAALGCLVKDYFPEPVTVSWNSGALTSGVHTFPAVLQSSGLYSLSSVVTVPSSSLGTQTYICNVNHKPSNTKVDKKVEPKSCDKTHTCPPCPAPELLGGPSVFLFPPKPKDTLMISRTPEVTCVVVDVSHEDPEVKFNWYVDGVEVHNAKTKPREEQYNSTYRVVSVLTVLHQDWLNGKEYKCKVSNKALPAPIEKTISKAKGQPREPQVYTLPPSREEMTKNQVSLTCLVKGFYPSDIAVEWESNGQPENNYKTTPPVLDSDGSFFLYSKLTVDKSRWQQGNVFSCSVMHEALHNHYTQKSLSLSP
# light: B2 light
# Assays:
# human FcRn [1] = biological target: T4, human FcRn (human, UniProt P55899 24-290; P61769 21-119); experiment: SPR Biacore T200, Ab captured via Fab-kappa, pH 6.0, steady state
# T4 construct: Prepared by the method of WO 2010/107110; also called hFcRn
# T4 sequence (P55899 24-290 limits assumed, chain 1 of 2): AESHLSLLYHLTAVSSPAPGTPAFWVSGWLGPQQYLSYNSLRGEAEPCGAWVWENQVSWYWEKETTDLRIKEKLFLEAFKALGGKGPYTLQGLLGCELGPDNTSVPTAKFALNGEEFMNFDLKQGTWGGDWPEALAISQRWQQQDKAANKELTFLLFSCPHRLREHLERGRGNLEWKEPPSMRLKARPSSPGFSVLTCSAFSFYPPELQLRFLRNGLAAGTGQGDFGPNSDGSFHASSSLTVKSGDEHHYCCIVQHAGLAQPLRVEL
# T4 sequence (P61769 21-119 limits assumed, chain 2 of 2): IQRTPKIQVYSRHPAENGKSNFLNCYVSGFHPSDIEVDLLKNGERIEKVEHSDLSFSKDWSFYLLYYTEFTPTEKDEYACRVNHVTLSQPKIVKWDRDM
# [2] = biological target: T5, human FcγRIIIa V allotype extracellular domain with C-terminal His-tag (human, UniProt P08637 17-208); experiment: SPR Biacore T200, Ab captured via Fab-kappa, pH 7.4, 25C, steady state model
# T5 construct: extracellular domain; also called hFcγR IIIa V
# T5 sequence (P08637 17-208 F176V): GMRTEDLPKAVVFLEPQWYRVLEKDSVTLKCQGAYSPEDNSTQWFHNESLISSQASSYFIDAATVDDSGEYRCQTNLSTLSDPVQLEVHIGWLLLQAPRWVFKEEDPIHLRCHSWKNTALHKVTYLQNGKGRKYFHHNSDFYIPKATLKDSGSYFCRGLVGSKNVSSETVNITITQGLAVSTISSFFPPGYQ
# Protocol: The interaction between the generated antibodies and human FcγRs was analyzed using Biacore T200. 50 mM Na-Phosphate, 150 mM NaCl, 0.05% Tween20 (pH 7.4) was used as the running buffer, and the assay was performed at 25° C. For the sensor chip, Series S SA (GE Healthcare) chips onto which CaptureSelect Human Fab-kappa Kinetics Biotin Conjugate (Thermo Fisher Scientific) was immobilized were used. The antibodies of interest were captured onto these chips and each FcγR diluted in the running buffer was allowed to interact with them. Chips were regenerated with 10 mM Glycine-HCl (pH 1.5) and 25 mM NaOH, and assay was performed by repeatedly capturing antibodies. The dissociation constants KD (mol/L) for FcγRs of each antibody were calculated using Biacore T200 Evaluation Software 2.0, and using the 1:1 Langmuir binding model for FcγRIa and FcγRIIIa and the steady state affinity model for FcγRIIa. For FcγRIIb, the binding amount of FcγRIIb per unit amount of antibody was calculated by correcting the binding amount of FcγRIIb obtained from the sensorgram obtained by the measurement with the amount of antibody captured onto the chip surface.
# [3] = biological target: T1, human FcγRIIa H allotype extracellular …; experiment: SPR; KD of 04H1389-G1m/04L1615-k0MT divided by KD of variant
# [4] = biological target: T5, human FcγRIIIa V allotype extracellular …; experiment: as above
# human FcRn [5] = biological target: T4, human FcRn; experiment: as above
# [6] = biological target: T6, human FcγRIa extracellular domain with C-terminal His-tag (human, UniProt P12314 16-292); experiment: as above
# T6 construct: extracellular domain; also called hFcγR Ia; hFcγRIa
# T6 sequence (P12314 16-292): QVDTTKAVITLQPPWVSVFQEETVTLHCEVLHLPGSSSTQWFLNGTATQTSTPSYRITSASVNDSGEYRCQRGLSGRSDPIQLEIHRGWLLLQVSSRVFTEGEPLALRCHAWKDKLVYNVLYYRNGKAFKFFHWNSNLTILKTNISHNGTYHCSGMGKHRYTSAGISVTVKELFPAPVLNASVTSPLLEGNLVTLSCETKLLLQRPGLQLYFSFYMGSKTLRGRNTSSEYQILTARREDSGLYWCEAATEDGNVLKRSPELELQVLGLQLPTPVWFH
# [7] = biological target: T2, human FcγRIIa R allotype extracellular …; experiment: as above
# [8] = biological target: T1, human FcγRIIa H allotype extracellular …; experiment: SPR Biacore T200, Ab captured via Fab-kappa, pH 7.4, 25C;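 also: each FcγR flowed as analyte over the captured antibodies, KD derived by 1:1 Langmuir or steady-state affinity fitting depending on the receptor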
# [9] = biological target: T6, human FcγRIa extracellular domain with …; experiment: as above
# [10] = biological target: T2, human FcγRIIa R allotype extracellular …; experiment: as above
# [11] = biological target: T3, human FcγRIIb extracellular domain with …; experiment: SPR; binding amount divided by that of 04H1389-G1m/04L1615-k0MT
# [12] = biological target: T3, human FcγRIIb extracellular domain with …; experiment: SPR; FcγRIIb bound amount per unit captured Ab
# [13] = biological target: T7, mouse CTLA4 extracellular region linked with a His-tag (mCTLA4-His) (mouse, UniProt P09793 36-161); experiment: SPR Biacore T200, 37C, antibody captured, ATP 10 uM
# Protocol: (§1) Biacore T200 was used to measure the binding of the generated antibodies to human CTLA4. 20 mM ACES (pH 7.4), 150 mM NaCl, 2 mM MgCl₂, 0.05% Tween 20 with ATP added to the desired concentration was used as the running buffer, and the assay was performed at 37° C. First, Protein G (CALBIOCHEM) was immobilized onto a Series S Sensor Chip CM3 (GE Healthcare), and the antibodies were captured by interacting an antibody solution prepared in an ATP-free running buffer with the chip. Next, by interacting with a human CTLA4 solution prepared in a running buffer containing ATP to the desired concentration, or a human CTLA4 solution prepared in a running buffer containing no ATP, the binding ability of the antibody to human CTLA4 in the presence or absence of ATP was evaluated. Chips were regenerated with 25 mM NaOH and 10 mM Glycine-HCl (pH 1.5), and assay was performed by repeatedly capturing antibodies. The dissociation constant of each antibody for CTLA4 was calculated using Biacore T200 Evaluation Software 2.0. Specifically, the binding rate constant ka (L/mol/s) and the dissociation rate constant kd (1/s) were calculated by global fitting of the sensorgrams obtained by the measurement, using a 1:1 Langmuir binding model. The dissociation constant KD (mol/L) was calculated from those values. Alternatively, the dissociation constant KD (mol/L) was calculated by the steady state model. In addition, the binding amount of CTLA4 per unit amount of antibody was calculated by correcting the amount of CTLA4 bound as calculated from the sensorgram obtained by the assay with the amount of antibody captured onto the chip surface.
# (§2) Next, the binding ability of some variants to mouse CTLA4 and cynomolgus monkey CTLA4 was evaluated.
# human CTLA4 [14] = biological target: T8, human CTLA4 (human); experiment: as above
# T8 construct: also called hCTLA4; hCTLA4-His-BAP
# T8 sequence (chain, as listed by the source limits assumed): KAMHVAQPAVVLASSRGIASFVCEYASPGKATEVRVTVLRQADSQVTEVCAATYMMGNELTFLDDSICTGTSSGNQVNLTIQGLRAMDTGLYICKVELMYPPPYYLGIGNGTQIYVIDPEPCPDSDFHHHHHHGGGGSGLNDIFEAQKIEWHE
# Protocol: as §1, §2
# [15] = biological target: T9, cynomolgus monkey CTLA4 (CyCTLA4-His-BAP) (cynomolgus monkey); experiment: as above
# T9 sequence (chain, as listed by the source limits assumed): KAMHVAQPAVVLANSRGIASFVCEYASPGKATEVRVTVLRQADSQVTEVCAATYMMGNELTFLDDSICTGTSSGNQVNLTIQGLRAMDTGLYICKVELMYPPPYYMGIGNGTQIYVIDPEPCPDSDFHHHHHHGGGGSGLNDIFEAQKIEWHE
# Protocol: as §1, §2
# [16] = biological target: T7, mouse CTLA4 extracellular region linked …; experiment: SPR Biacore T200, 37C, antibody captured, ATP 1 uM
# Protocol: as §1, §2
# human CTLA4 [17] = biological target: T8, human CTLA4; experiment: SPR Biacore T200, 37C, antibody captured, ATP 1 uM
# Protocol: as §1, §2
# [18] = biological target: T9, cynomolgus monkey CTLA4 …; experiment: SPR Biacore T200, 37C, antibody captured, ATP 1 uM
# Protocol: as §1, §2
# human CTLA4 [19] = biological target: T8, human CTLA4; experiment: SPR Biacore T200, 37C, antibody captured, ADP 10 uM;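 also: antibodies held on a Protein G CM3 chip, human CTLA4 as analyte in ACES pH 7.4 buffer, rates from a global 1:1 Langmuir fit, Kd from rates or steady state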
# Protocol: as §1
# The binding ability of the generated variants to human CTLA4 in the presence of ADP or AMP was evaluated by Biacore T200 and compared with the binding ability in the presence of ATP.
# human CTLA4 [20] = biological target: T8, human CTLA4; experiment: SPR Biacore T200, 37C, antibody captured, ATP 1 uM; remark: listed apart in the source
# Protocol: as §1
# human CTLA4 [21] = biological target: T8, human CTLA4; experiment: SPR Biacore T200, 37C, antibody captured, ATP 10 uM; remark: listed apart in the source
# [22] = biological target: T7, mouse CTLA4 extracellular region linked …; experiment: SPR Biacore T200, 37C, antibody captured, ATP 100 uM
# Protocol: as §1, §2
# human CTLA4 [23] = biological target: T8, human CTLA4; experiment: as above
# Protocol: as §1, §2
# [24] = biological target: T9, cynomolgus monkey CTLA4 …; experiment: as above
# Protocol: as §1, §2
# human CTLA4 [25] = biological target: T8, human CTLA4; experiment: SPR Biacore T200, 37C, antibody captured, AMP 10 uM
# human CTLA4 [26] = biological target: T8, human CTLA4; experiment: SPR Biacore T200, 37C, antibody captured, no ATP; no ATP
# Protocol: Biacore T200 was used to measure the binding of the generated antibodies to human CTLA4. 20 mM ACES (pH 7.4), 150 mM NaCl, 2 mM MgCl₂, 0.05% Tween 20 with ATP added to the desired concentration was used as the running buffer, and the assay was performed at 37° C. First, Protein G (CALBIOCHEM) was immobilized onto a Series S Sensor Chip CM3 (GE Healthcare), and the antibodies were captured by interacting an antibody solution prepared in an ATP-free running buffer with the chip. Next, by interacting with a human CTLA4 solution prepared in a running buffer containing ATP to the desired concentration, or a human CTLA4 solution prepared in a running buffer containing no ATP, the binding ability of the antibody to human CTLA4 in the presence or absence of ATP was evaluated. Chips were regenerated with 25 mM NaOH and 10 mM Glycine-HCl (pH 1.5), and assay was performed by repeatedly capturing antibodies. The dissociation constant of each antibody for CTLA4 was calculated using Biacore T200 Evaluation Software 2.0. Specifically, the binding rate constant ka (L/mol/s) and the dissociation rate constant kd (1/s) were calculated by global fitting of the sensorgrams obtained by the measurement, using a 1:1 Langmuir binding model. The dissociation constant KD (mol/L) was calculated from those values. Alternatively, the dissociation constant KD (mol/L) was calculated by the steady state model. […]
# human CTLA4 [27] = biological target: T8, human CTLA4; experiment: SPR Biacore T200, 37C, antibody captured, ATP 10 uM; remark: listed apart in the source
# Protocol: as §1
# [28] = biological target: T5, human FcγRIIIa V allotype extracellular …; experiment: SPR Biacore T200, captured Ab, pH 7.4, steady state model
# Protocol: (§3) The interaction between the generated antibodies and human FcγRs was analyzed by the following method using Biacore T200. 50 mM Na-Phosphate, 150 mM NaCl, 0.05% Tween20 (pH 7.4) was used as the running buffer, and the assay was performed at 25° C. For the sensor chips, Series S SA (GE Healthcare) chips onto which CaptureSelect Human Fab-lambda Kinetics Biotin Conjugate (Thermo Fisher Scientific) was immobilized were used. The antibodies of interest were captured onto these chips and each FcγR diluted in the running buffer was allowed to interact with them. Chips were regenerated with 10 mM Glycine-HCl (pH 1.5) and 25 mM NaOH, and assay was performed by repeatedly capturing antibodies. The dissociation constants KD (mol/L) for FcγRs of each antibody were calculated using Biacore T200 Evaluation Software 2.0, using the 1:1 Langmuir binding model for FcγRIa and FcγRIIIa and the steady state affinity model for FcγRIIa. For FcγRIIb, the binding amount of FcγRIIb per unit amount of antibody was calculated by correcting the binding amount of FcγRIIb obtained from the sensorgram obtained by the measurement with the amount of antibody captured onto the chip surface.
# human FcRn [29] = biological target: T4, human FcRn; experiment: SPR Biacore T200, captured Ab, pH 6.0, steady state
# Protocol: The interaction between the generated antibodies and human FcRn was analyzed by the following method using Biacore T200. 50 mM Na-Phosphate, 150 mM NaCl, 0.05% Tween20 (pH 6.0) was used as the running buffer, and the assay was performed at 25° C. For the sensor chip, Series S SA (GE Healthcare) chips onto which CaptureSelect Human Fab-lambda Kinetics Biotin Conjugate (Thermo Fisher Scientific) was immobilized were used. The antibodies of interest were captured onto these chips and FcRn diluted in the running buffer was allowed to interact with them. Chips were regenerated with 10 mM Glycine-HCl (pH 1.5) and 25 mM NaOH, and assay was performed by repeatedly capturing antibodies. The dissociation constant for FcRn of each antibody was calculated using the steady state model, using Biacore T200 Evaluation Software 2.0.
# [30] = biological target: T3, human FcγRIIb extracellular domain with …; experiment: SPR; binding amount divided by that of 04H1656-G1m/04L1610-lam1
# [31] = biological target: T3, human FcγRIIb extracellular domain with …; experiment: SPR; FcγRIIb bound amount per unit captured Ab; remark: listed apart in the source
# Protocol: as §3
# [32] = biological target: T10, human FcγRIIIa F allotype extracellular domain with C-terminal His-tag (human, UniProt P08637 17-208); experiment: SPR Biacore T200, captured Ab, pH 7.4
# T10 construct: extracellular domain; also called hFcγR IIIa F
# T10 sequence (P08637 17-208): as the sequence (P08637 17-208 F176V) above, with V160F counted along it
# Protocol: as §3
# [33] = biological target: T1, human FcγRIIa H allotype extracellular …; experiment: SPR Biacore T200, captured Ab, pH 7.4
# Protocol: as §3
# [34] = biological target: T6, human FcγRIa extracellular domain with …; experiment: SPR Biacore T200, captured Ab, pH 7.4
# Protocol: as §3
# [35] = biological target: T2, human FcγRIIa R allotype extracellular …; experiment: SPR Biacore T200, captured Ab, pH 7.4
# Protocol: as §3
# [36] = biological target: T10, human FcγRIIIa F allotype extracellular …; experiment: SPR; KD of 04H1656-G1m/04L1610-lam1 divided by KD of variant
# [37] = biological target: T1, human FcγRIIa H allotype extracellular …; experiment: as above
# [38] = biological target: T5, human FcγRIIIa V allotype extracellular …; experiment: as above
# human FcRn [39] = biological target: T4, human FcRn; experiment: as above
# [40] = biological target: T6, human FcγRIa extracellular domain with …; experiment: as above
# [41] = biological target: T2, human FcγRIIa R allotype extracellular …; experiment: as above
binder,measurement,setting,value
B1,Kd,human FcRn [1],1300 nM
same,Kd,[2],910 nM
same,Relative value to KD between G1m and hFcγRs,[3],1
same,Relative value to KD between G1m and hFcγRs,[4],1
same,Relative value to KD between G1m and hFcRn,human FcRn [5],1
same,Relative value to KD between G1m and hFcγRs,[6],1
same,Relative value to KD between G1m and hFcγRs,[7],1
same,Kd,[8],1100 nM
same,Kd,[9],0.045 nM
same,Kd,[10],1500 nM
same,Relative binding amount,[11],1
same,Binding amount,[12],0.011
B2,Kd,[13],27 nM
same,Kd,human CTLA4 [14],15 nM
same,Kd,[15],28 nM
same,Kd,[16],180 nM
same,Kd,human CTLA4 [17],110 nM
same,Kd,[18],180 nM
same,Kd,human CTLA4 [19],32 nM
same,koff,human CTLA4 [19],0.0028 s⁻¹
same,kon,human CTLA4 [19],88000 M⁻¹ s⁻¹
same,Kd,human CTLA4 [20],120 nM
same,Kd,human CTLA4 [21],19 nM
same,koff,human CTLA4 [21],0.0014 s⁻¹
same,kon,human CTLA4 [21],71000 M⁻¹ s⁻¹
same,Kd,[22],10 nM
same,Kd,human CTLA4 [23],4.4 nM
same,Kd,[24],8.1 nM
same,Kd,human CTLA4 [25],100 nM
same,koff,human CTLA4 [25],0.0089 s⁻¹
same,kon,human CTLA4 [25],89000 M⁻¹ s⁻¹
same,Kd,human CTLA4 [26],5300 nM
same,Kd,human CTLA4 [27],19 nM
B3,Kd,[28],970 nM
same,Kd,human FcRn [29],1700 nM
same,Relative binding amount,[30],1
same,Binding amount,[31],0.008
same,Kd,[32],1000 nM
same,Kd,[33],1300 nM
same,Kd,[34],0.092 nM
same,Kd,[35],1600 nM
same,Relative value to KD between G1m and hFcγRs,[36],1
same,Relative value to KD between G1m and hFcγRs,[37],1
same,Relative value to KD between G1m and hFcγRs,[38],1
same,Relative value to KD between G1m and hFcRn,human FcRn [39],1
same,Relative value to KD between G1m and hFcγRs,[40],1
same,Relative value to KD between G1m and hFcγRs,[41],1

# From US20260022175A1 (Chugai, published 2026)
